Laboratory results published in the supplement of paper PMC9170038.

Tested on: MS2 coat protein
Test: apparent KD of MS2 coat protein; designed switch direction (-1 OFF switch, 1 ON switch): -1; higher = weaker reporter binding
How it was run: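 RNA switches sharing common flanks were transcribed by stalled E. coli RNA polymerase on Illumina chips. A doubling series of SNAP-549-labelled MS2 coat protein, from 0.7 or 1.5 nM to 3 µM, was applied in Tris-HCl pH 7.5 buffer with KCl, MgCl2, BSA, DTT, tRNA and Tween-20. Each step lasted 0.8–1.5 h at the bottom of the series and 10–20 min at the top. Normalised cluster fluorescence was curve-fitted, giving apparent KD as the per-design median over clusters.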

[1] = Eterna round: R95, input ligand: microRNA oligo, concentration not stated
[2] = Eterna round: R95, input ligand: FMN 200 uM
[3] = Eterna round: R95, input ligand: none
[4] = input ligand: microRNA oligo, concentration not stated

Sequence | apparent KD of MS2 coat protein (input ligand: FMN 200 uM) [µM] | apparent KD of MS2 coat protein (input ligand: none) [µM] | apparent KD of MS2 coat protein [1] [µM] | apparent KD of MS2 coat protein [2] [µM] | apparent KD of MS2 coat protein [3] [µM] | apparent KD of MS2 coat protein [4] [µM]
GCAUCACAUGUCAGGAUAUGCUGUACCUUGGUACAGCAGAAGGGACAUGAGGAUCACCCAUGUGCCUAUGAUGC [JL-BMX4-4.11] (Eterna round: R97, puzzle: Brourd's mod of Exclusion 4) | 0.555 | 0.0593 | – | – | – | –
GCAUCCAAUGUGAGGAUAUACCUCUGGAUACAGAGGUAGAAGGCACAUGAGGAUCACCCAUGUUACUAGGAUGC [Fiskers BMX 4 - 36] (puzzle: Brourd's mod of Exclusion 4) | – | – | 0.0193 | – | – | –
GCAUUGAGUGUGAGGAUAUGCUGGUCCUAAGAUCAGCAGAAGGCACAUGAGGAUCACCCAUGUGAAAACAAUGC [Mat - Exclusion 4 - JL Mod - D65] (puzzle: Brourd's mod of Exclusion 4) | – | – | 0.0152 | 0.102 | 0.0174 | –
GCCAAUGACUGAGGAUAUGCUUAUAGACAUGAGGAUCACCCAUGUAAAUGGGACAUGUCAAACCAGCAGAAGGCAGGACCUGGC [Arused] (Eterna round: R96, puzzle: Exclusion NG 2) | 0.069 | 0.514 | – | – | – | 0.585
GCCAGAGCAGGAUAUUCAAUAUGUCACAUGAGGAUCACCCAUGUCCAGCGAAAGCUGGAGGGAGAAGGGCUCUGGC [Fiskers Ex 5 - 18] (puzzle: Exclusion 5) | – | – | 0.0893 | 0.0237 | 0.119 | –
GCCAGCGUAUAGGAUAUGGCCGGCUUUUGAGUACCAGAAGGAUACACAUGAGGAUCACCCAUGUGGCAUUCGUC [Eternabot (L2) Solution 71] (Eterna round: R97, puzzle: Exclusion 6) | 0.0205 | 0.0147 | – | – | – | –
GCCAUGUCAGGAUAUGCUUCAAAGCACGUACAGAGCUUGAAGUAGAAGGGACAUGAGGAUCACCCAUGUGCCUA [Eternabot (L1) Solution 80] (Eterna round: R97, puzzle: Exclusion 4) | 0.0402 | 0.02 | – | – | – | –
GCCCUCACAGUGAGGAUAUCUGAGCAUCCCGCUAAGGAGAAGGCACAUGAGGAUCACCCAUGUAAUUGGUUUAA [BmEX4 A.22] (Eterna round: R97, puzzle: Brourd's mod of Exclusion 4) | 0.124 | 0.0398 | – | – | – | –
GCCGAAAAUGUGAGGAUAUACCUAUGGAUACAUAGGUAGAAGGCACAUGAGGAUCACCCAUGUGUUUCAACGGC [Eli bmx4 4.21] (Eterna round: R97, puzzle: Brourd's mod of Exclusion 4) | 0.0948 | 0.0222 | – | – | – | –
GCCGAAAGUGUGAGGAUAUACCUAUGGAUACAUAGGUAGAAGGCACAUGAGGAUCACCCAUGUGGGAAAACGGC [Eli bmx4 4.30] (Eterna round: R97, puzzle: Brourd's mod of Exclusion 4) | 1.14 | 0.19 | – | – | – | –
GCCGAUUAAGUCAGGAUAUACCUAUGGAUACAUAGGUAGAAGGGACAUGAGGAUCACCCAUGUUCCUCACCGGC [Fiskers BMX 4 - 15] (puzzle: Brourd's mod of Exclusion 4) | – | – | 0.012 | – | – | –
GCCGCUGUAGGAUAUGCCAGGGUGGCAGCUUGAUGUGUGGCACAUGAGGAUCACCCAUGUAGAAGGACAGAAAG [Isvelera] (puzzle: Exclusion 2) | – | – | 0.0171 | – | – | –
GCCGUAAGUGUGAGGAUAUACCUAUGGAAACAUAGGUAGAAGGCACAUGAGGAUCACCCAUGUCCUUAAUCGGC [Mat - Exclusion 4 - Eli Mod - D4] (Eterna round: R97, puzzle: Brourd's mod of Exclusion 4) | 0.366 | 0.224 | – | – | – | –
GCCGUUAAGGUAGGAUAUGCUCGGUCUGUGCGUGCAGAAGGGCUGGUCGGCGACUUGAGGAUCACCCAAGUGGUCUUAUAGAAA [Mutated MS2 EX1.21] (Eterna round: R96, puzzle: Exclusion NG 1) | 0.121 | 0.0648 | – | – | – | 0.142
GCCUUACAUGAGGAUCACCCAUGUCAGGAUAUCGUUCAAGAUCUGACCUUAGAUCGAUCGAGAAGGGACUGGAU [Eternabot (L1) Solution 39] (Eterna round: R97, puzzle: Exclusion 1) | 0.0274 | 0.0172 | – | – | – | –
GCCUUAUCCGUCAGGAUAUACAUUUUUUUUUUUUUGUAGAAGGGACAUGAGGAUCACCCAUGUACAUUACAUUG [alecazam17] (Eterna round: R97, puzzle: Brourd's mod of Exclusion 4) | 0.041 | 0.0229 | – | – | – | –
GCGAAAGCAAACAGGUGAAACAUGAGGAUCACCCAUGUCCUCAUUUGCUCGUCUUAUAAGCUAUGCGAAAGCAUAGC [Sensor 3, v1 - 8] (puzzle: Sensor v3, turn-off variant 1) | – | – | 0.935 | 0.1 | 0.109 | –
GCGAAUAACGAGGAUAUCGUAUCGGAAACGAUACGAGAAGGUGUAACAUGAGGAUCACCCAUGUUCCUCAACGC [Fiskers Ex 6 - 7] (puzzle: Exclusion 6) | – | – | 0.0331 | – | – | –
GCGACUGGAGGAUAUACAUGAGGAUCACCCAUGUGAUCUAAAAGGGUCUUAUGCCGGUGUAGAAGGCCGAGCAG [Eternabot (L2) Solution 84] (Eterna round: R97, puzzle: Exclusion 3) | 0.0267 | 0.0273 | – | – | – | –
GCGCACCUACCAAAAGGUAGGCUAACAUGAGGAUCACCCAUGUAGGAUAUCGAUUGCUUUGCAGUCGAGAAGGACAUGAUGCGC [JL ENG3 3.80 Mod 11] (Eterna round: R96, puzzle: Exclusion NG 3) | 0.0732 | 0.03 | – | – | – | 0.0214
GCGCAGUCAGGAUAUGCCGGAUAGGAUCACCCUGUCCAAAGGCAGAAGGGACAUGAGGAUCACCCAUGUGGCGC [e4e Mirror Pins] (puzzle: Exclusion 4) | – | – | 0.0177 | 0.0222 | 0.0168 | –
GCGCCAUCGUGAGAUGGCGUAUAUACAUGAGGAUCACCCAUGUAGGAUAUCGAUUGCUUUGCAGUCGAGAAGGGCGUGUAAUUU [JL ENG3 3.92] (Eterna round: R96, puzzle: Exclusion NG 3) | 0.0457 | 0.0348 | – | – | – | 0.0225
GCGCCUUGAGUGAGGAUAUGUUCAUAGUCGCUUGGAUAGAAGGCACAUGAGGAUCACCCAUGUAUCGGAGUUAA [Eternabot (L2) Solution 39] (Eterna round: R97, puzzle: Brourd's mod of Exclusion 4) | 0.0482 | 0.0339 | – | – | – | –
GCGCGAAGGUAGGAUAUCGAGGGAUCUUCCCGCCGAGAAGGACCCACAUGAGGAUCACCCAUGUGGUGAUCCUG [eternacac ex6r4 sub9] (Eterna round: R97, puzzle: Exclusion 6) | 0.0271 | 0.0494 | – | – | – | –
GCGGACAAGAUCGCGAGAUCAGAGACAUGAGGAUCACCCAUGUAGGAUAUCGAUUCGAAACGAAUCGAGAAGGGCAUAGUCCGC [JL denovo 5] (Eterna round: R96, puzzle: Exclusion NG 3) | 0.0173 | 0.0194 | – | – | – | 0.0116
